Earlier results as cited in publication PMC7689341.
Read-outs that look alike come from different tables or passages of the source. Values belong to the substance of their own block, whether it stands above or below them.

What was measured:
IFNAR2 (Homo sapiens) [1] = target: IFNAR2 (Homo sapiens) (UniProt P48551)
IFNAR2 (Homo sapiens) [2] = target: IFNAR2 (Homo sapiens) (UniProt P48551); remark: listed apart in the source
IFNAR1 (Homo sapiens) = IFNAR1 (Homo sapiens) (UniProt P17181)
IFNAR2 (Mus musculus) = IFNAR2 (Mus musculus) (UniProt O35664)
IFNAR1 (Mus musculus) = IFNAR1 (Mus musculus) (UniProt P33896)
IFNλR1 (Homo sapiens) = IFNλR1 (Homo sapiens) (UniProt Q8IU57)
[3] = target: IFNλ3/IFNλR1 complex (Homo sapiens) (UniProt Q8IZI9)
IFNλ3/IFNλR1 complex (Homo sapiens), sequence (Q8IZI9 22-196, chain 1 of 2): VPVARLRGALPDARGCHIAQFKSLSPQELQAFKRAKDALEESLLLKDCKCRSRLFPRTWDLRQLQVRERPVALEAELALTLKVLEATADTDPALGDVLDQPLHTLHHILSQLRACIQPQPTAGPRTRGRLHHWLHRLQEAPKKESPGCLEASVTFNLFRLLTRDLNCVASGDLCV
IFNλ3/IFNλR1 complex (Homo sapiens), sequence (Q8IU57 21-228, chain 2 of 2, further chain): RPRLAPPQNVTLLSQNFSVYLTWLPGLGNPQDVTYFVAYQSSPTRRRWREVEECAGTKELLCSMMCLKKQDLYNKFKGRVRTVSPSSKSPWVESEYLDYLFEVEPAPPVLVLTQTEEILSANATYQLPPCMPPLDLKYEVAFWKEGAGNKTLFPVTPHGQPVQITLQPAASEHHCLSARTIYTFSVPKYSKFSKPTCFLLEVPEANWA

IFNβ (from UniProt P01575), sequence (P01575 22-182): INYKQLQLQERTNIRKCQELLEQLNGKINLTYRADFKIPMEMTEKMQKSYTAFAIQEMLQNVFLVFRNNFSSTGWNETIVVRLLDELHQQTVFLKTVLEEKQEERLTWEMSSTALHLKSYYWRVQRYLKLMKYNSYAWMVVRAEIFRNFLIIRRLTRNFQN
IFNAR2 (Homo sapiens), sequence (P48551 27-243): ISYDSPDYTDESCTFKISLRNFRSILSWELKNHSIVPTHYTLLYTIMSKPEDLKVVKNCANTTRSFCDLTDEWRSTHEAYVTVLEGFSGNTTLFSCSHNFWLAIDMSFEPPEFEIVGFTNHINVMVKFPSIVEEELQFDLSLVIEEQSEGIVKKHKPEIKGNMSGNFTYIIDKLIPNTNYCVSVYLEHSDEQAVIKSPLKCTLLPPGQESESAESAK
IFNβ (from UniProt P01574), sequence (P01574 22-187): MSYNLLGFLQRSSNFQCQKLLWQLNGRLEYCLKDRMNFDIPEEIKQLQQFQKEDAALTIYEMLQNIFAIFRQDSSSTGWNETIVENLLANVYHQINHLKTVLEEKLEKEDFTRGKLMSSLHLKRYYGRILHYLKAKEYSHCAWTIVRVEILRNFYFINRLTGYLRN
IFNAR2 (Mus musculus), sequence (O35664 22-242): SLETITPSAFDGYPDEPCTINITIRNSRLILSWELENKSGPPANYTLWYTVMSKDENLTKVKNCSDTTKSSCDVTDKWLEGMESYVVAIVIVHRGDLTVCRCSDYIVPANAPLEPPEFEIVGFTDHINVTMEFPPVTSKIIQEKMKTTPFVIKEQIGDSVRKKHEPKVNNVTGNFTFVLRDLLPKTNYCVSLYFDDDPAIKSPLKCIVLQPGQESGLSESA
IFNλR1 (Homo sapiens), sequence (Q8IU57 21-228): as the sequence (Q8IU57 21-228, chain 2 of 2, further chain) above
IL-10R2, sequence (Q08334 20-220): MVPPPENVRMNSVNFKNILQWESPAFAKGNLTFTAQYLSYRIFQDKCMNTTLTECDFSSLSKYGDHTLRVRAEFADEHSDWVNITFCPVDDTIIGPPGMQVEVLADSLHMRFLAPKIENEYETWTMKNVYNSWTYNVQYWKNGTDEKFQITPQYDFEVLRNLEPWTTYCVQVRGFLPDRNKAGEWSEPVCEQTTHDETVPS
IFNAR1 (Homo sapiens), sequence (P17181 28-436): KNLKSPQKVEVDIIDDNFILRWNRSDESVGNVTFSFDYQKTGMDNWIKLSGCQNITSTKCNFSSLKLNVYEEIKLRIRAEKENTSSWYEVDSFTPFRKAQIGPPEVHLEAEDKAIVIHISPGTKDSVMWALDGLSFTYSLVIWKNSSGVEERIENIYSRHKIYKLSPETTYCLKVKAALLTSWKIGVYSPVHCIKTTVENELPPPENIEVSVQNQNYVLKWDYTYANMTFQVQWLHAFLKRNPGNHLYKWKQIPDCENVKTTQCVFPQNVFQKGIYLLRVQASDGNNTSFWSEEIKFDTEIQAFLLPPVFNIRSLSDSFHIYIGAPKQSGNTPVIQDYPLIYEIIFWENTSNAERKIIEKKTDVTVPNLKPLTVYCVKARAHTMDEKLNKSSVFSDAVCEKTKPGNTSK
IFNAR1 (Mus musculus), sequence (P33896 27-429): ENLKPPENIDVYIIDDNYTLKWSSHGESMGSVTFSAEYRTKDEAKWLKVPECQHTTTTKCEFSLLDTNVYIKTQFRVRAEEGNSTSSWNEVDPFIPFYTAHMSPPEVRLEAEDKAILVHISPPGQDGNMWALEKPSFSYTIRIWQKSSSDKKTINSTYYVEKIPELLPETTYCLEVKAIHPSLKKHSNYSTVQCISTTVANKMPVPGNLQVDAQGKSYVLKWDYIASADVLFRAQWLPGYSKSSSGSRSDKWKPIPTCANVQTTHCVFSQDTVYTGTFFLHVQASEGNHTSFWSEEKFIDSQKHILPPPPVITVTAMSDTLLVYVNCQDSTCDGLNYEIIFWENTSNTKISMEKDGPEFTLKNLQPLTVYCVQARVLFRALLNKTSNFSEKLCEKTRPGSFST
IFNλ3, sequence (Q8IZI9 22-196): as the sequence (Q8IZI9 22-196, chain 1 of 2) above

Substance: IFNβ (from UniProt P01574)
Kd (IFNAR2 (Homo sapiens) [2]): 0.1 nM | Kd (IFNAR1 (Homo sapiens)): 30 nM

Substance: IFNβ (from UniProt P01575)
Kd (IFNAR2 (Mus musculus)): 1700 nM | Kd (IFNAR1 (Mus musculus)): 10 nM

Substance: IL-10R2 (from UniProt Q08334)
Kd [3]: 15000 nM

More lines, now with the values ahead:

Kd (IFNAR2 (Homo sapiens) [1]): 100 nM
Substance: IFNα1 (from UniProt P0DY56)

Kd (IFNλR1 (Homo sapiens)): 850 nM
Substance: IFNλ3 (from UniProt Q8IZI9)
